Laboratory results reported in paper PMC8043444 (bioRxiv, 2021).

Assays:
[1] = molecular target: T1, SARS-CoV-2 RBD WT for SPR binding assays (SARS-CoV-2, UniProt P0DTC2); assay: SPR
[2] = molecular target: T1, SARS-CoV-2 RBD WT for SPR binding assays; assay: cell-based or functional assay
[3] = molecular target: SARS-CoV-2 RBD WT for crystallization (SARS-CoV-2, UniProt P0DTC2, deglycosylated by overnight incubation with EndoH glycosidase); assay: crystal structure

Binder	Kd [1]	neutralisation of authentic SARS-CoV-2-Nluc on Vero E6 cells (IF/luc), IC90 [2]	binding result [3]
S2D106 IgG1 (LS) (antibody, V domains shown) VH: EVQLVQSGAEVKKPGSSVKVSCKASGGPFSSSAISWVRQAPGQGLEWMGGIIPMVGTANYAQKFQGRVTITADESTSTAYMELSSLRSEDTAVYYCARDSRYCSGGSCYSVWFDPWGQGTLVTVSS VL: not shown	0.04 nM	23.6	
S2D106 Fab (Fab, V domains shown) VH: EVQLVQSGAEVKKPGSSVKVSCKASGGPFSSSAISWVRQAPGQGLEWMGGIIPMVGTANYAQKFQGRVTITADESTSTAYMELSSLRSEDTAVYYCARDSRYCSGGSCYSVWFDPWGQGTLVTVSS VL: not shown	0.05 nM		
S2H97 IgG1 (LS) (antibody, V domains shown) VH: QVRLVQSGAEVKKSGESLKISCKGSGYSFTSYWIGWVRQMPGKGLEWMGIIYPGDSDTRYSPSFQGQVTISADKSISTVYLQWSSLKASDTAMYYCARQWSHYTYDYYYWGQGTLVTISS VL: QSVLTQPASVSGSPGQSITISCTGISSDVGGYNSVSWYQQHPGKAPKLMIYDVTNRPSGVSNRFSGSKSGNTASLTISGLQAEDEADYYCSSYTSSSTPPYVFGTGTKVSVL	0.04 nM	3290	
S2H97 Fab (Fab, V domains shown) VH: QVRLVQSGAEVKKSGESLKISCKGSGYSFTSYWIGWVRQMPGKGLEWMGIIYPGDSDTRYSPSFQGQVTISADKSISTVYLQWSSLKASDTAMYYCARQWSHYTYDYYYWGQGTLVTISS VL: QSVLTQPASVSGSPGQSITISCTGISSDVGGYNSVSWYQQHPGKAPKLMIYDVTNRPSGVSNRFSGSKSGNTASLTISGLQAEDEADYYCSSYTSSSTPPYVFGTGTKVSVL	0.03 nM		
S2E12 IgG1 (LS) (antibody, V domains shown) VH: not shown VL: DIVLTQTPGTLSLSPGERATLSCRASQSVSSSYLAWYQQKPGQAPRLLIYGASSRATGIPDRFSGSGSGTDFTLTISRLEPEDFAVYYCQQYVGLTGWTFGQGTKVEIK	0.7 nM	14	
S2X35 IgG1 (LS) (antibody, V domains shown) VH: QVQLVQSGAEVKKPGASVKVSCKASGYTFTNYGISWVRQAPGQGLEWMGWISAYKGNTNYAQKLQGRVTMTTDTSTSTAYMELRSLRSDDTAVYYCARPDYQVLGYDFWIGYYGMDVWGQGTTVIVSS VL: QSVLTQPPSVSGAPGQRVTISCTGSSSNIGAGYDVHWYQQLPGTAPKLLIYGNTNRPSGVPDRFSGSKSGTSASLAITGLQAEDEADYYCQSYDSSLSGSEVVFGGGTKLTVL	0.06 nM	592	
S2X259 Fab (Fab, V domains shown) VH: QVQLVQSGAEVKKPGSSVKVSCKASGGIFNTYTISWVRQAPGQGLEWMGRIILMSGMANYAQKIQGRVTITADKSTSTAYMELTSLRSDDTAVYYCARGFNGNYYGWGDDDAFDIWGQGTLVTVYS VL: QTVLTQPPSVSGAPGQRVTISCTGSNSNIGAGYDVHWYQQLPGTAPKLLICGNSNRPSGVPDRFSGSKSGTSASLAITGLQAEDEADYYCQSYDSSLSGPNWVFGGGTKLTVL			binds
S304 IgG1 (LS) (antibody, V domains shown) VH: EVQLVESGGGLVQPGGSLRLSCAASGFTFSSYDMHWVRQTTGKGLEWVSTIGTAGDTYYPDSVKGRFTISREDAKNSLYLQMNSLRAGDTAVYYCARGDSSGYYYYFDYWGQGTLLTVSS VL: DIEMTQSPSSLSAAVGDRVTITCRASQSIGSYLNWYQQKPGKAPKLLIYAASSLQSGVPSRFSGSGSGTDFTLTISSLQPEDFAIYYCQQSYVSPTYTFGPGTKVDIK	0.4 nM		
